Measured values as given in PMC9790621.

Experiments:
purified protein [1] = substrate: Nc1nc2c(ncn2[C@@H]2O[C@H](COP(=O)(O)O)[C@@H](O)[C@H]2O)c(=O)[nH]1; assay: purified protein; conditions: pH 7.8; 25.0 °C
purified protein [2] = substrate: NC(=O)C1=CN([C@@H]2O[C@H](COP(=O)(O)OP(=O)(O)OC[C@H]3O[C@@H](n4cnc5c(N)ncnc54)[C@H](OP(=O)(O)O)[C@@H]3O)[C@@H](O)[C@H]2O)C=CC1; assay: purified protein; conditions: pH 7.8; 25.0 °C

B1: Mtb GMPR (Mtb GuaB1) (Mycobacterium tuberculosis H37Rv) (protein)
chain: MRFLDGHPPGYDLTYNDVFIVPNRSEVASRFDVDLSTADGSGTTIPVVVANMTAVAGRRMAETVARRGGIVILPQDLPIPAVKQTVAFVKSRDLVLDTPVTLAPDDSVSDAMALIHKRAHGVAVVILEGRPIGLVRESSCLGVDRFTRVRDIAVTDYVTAPAGTEPRKIFDLLEHAPVDVAVLTDADGTLAGVLSRTGAIRAGIYTPATDSAGRLRIGAAVGINGDVGAKARALAEAGVDVLVIDTAHGHQVKTLDAIKAVSALDLGLPLAAGNVVSAEGTRDLLKAGANVVKVGVGPGAMCTTRMMTGVGRPQFSAVLECASAARQLGGHIWADGGIRHPRDVALALAAGASNVMIGSWFAGTYESPGDLMRDRDDQPYKESYGMASKRAVVARTGADNPFDRARKALFEEGISTSRMGLDPDRGGVEDLIDHITSGVRSTCTYVGASNLAELHERAVVGVQSGAGFAEGHPLPAGW
K0.5 (purified protein [1]): 10.5 ± 1.17 µM | K0.5 (purified protein [2]): 63 ± 7 µM
